Results: article PMC2935574 (The Journal of Cell Biology, 2010)
“And” between values parts separate entries of the source, which are not always exact repeats. Identical values can stand only once.

Legend:
[1] = biological target: fluorescein-labeled synthetic peptides encompassing residues 205–217 or 202–219 of NSL1; experiment: fluorescence polarisation
[2] = biological target: T1, KNL1^2106–2316 (C-terminal region of KNL1) (human, UniProt Q8NG31-2 2106-2316); experiment: ITC
T1 sequence (looked up): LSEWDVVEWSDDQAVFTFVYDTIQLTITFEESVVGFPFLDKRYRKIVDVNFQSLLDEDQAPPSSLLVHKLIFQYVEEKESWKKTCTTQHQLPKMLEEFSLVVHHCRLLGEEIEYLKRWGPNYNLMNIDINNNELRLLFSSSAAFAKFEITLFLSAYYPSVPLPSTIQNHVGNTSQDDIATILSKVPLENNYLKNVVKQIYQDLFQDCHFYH

[3] = biological target: T2, NDC80 complex (four-subunit NDC80C) (human, UniProt O14777 1-642; Q9BZD4 1-464; Q8NBT2 1-197; Q9HBM1 1-224); experiment: SEC
[4] = biological target: T2, NDC80 complex (four-subunit NDC80C); experiment: ITC

T2 sequence (O14777 whole entry, chain 1 of 4): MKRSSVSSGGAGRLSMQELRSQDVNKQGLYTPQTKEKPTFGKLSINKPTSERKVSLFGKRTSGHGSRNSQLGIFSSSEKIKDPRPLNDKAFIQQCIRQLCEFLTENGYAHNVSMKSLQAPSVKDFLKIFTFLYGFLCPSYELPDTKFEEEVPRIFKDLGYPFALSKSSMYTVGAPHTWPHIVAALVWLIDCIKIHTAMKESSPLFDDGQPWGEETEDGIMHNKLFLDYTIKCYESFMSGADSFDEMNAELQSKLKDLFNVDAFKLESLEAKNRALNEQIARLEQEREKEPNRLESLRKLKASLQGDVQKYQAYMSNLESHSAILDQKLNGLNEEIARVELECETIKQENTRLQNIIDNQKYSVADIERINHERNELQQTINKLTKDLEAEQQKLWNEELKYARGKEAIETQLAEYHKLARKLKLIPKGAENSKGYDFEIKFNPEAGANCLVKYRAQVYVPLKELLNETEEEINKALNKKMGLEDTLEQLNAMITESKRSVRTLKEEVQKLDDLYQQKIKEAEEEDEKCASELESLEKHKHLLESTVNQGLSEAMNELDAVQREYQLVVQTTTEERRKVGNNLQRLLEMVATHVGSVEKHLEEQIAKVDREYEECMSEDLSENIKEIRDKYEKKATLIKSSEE
T2 sequence (Q9BZD4 whole entry, chain 2 of 4): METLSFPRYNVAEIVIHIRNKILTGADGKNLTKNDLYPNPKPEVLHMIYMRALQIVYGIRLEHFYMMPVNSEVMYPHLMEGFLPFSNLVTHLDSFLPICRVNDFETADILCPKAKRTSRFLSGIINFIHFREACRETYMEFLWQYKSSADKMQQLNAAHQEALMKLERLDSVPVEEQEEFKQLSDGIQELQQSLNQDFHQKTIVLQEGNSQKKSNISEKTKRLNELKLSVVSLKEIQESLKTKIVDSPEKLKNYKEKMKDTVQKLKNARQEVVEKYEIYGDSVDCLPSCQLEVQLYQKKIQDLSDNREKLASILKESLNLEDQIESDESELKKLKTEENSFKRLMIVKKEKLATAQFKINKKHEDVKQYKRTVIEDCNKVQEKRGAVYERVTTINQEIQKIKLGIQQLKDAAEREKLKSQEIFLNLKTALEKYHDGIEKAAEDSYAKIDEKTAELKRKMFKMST
T2 sequence (Q8NBT2 whole entry, chain 3 of 4): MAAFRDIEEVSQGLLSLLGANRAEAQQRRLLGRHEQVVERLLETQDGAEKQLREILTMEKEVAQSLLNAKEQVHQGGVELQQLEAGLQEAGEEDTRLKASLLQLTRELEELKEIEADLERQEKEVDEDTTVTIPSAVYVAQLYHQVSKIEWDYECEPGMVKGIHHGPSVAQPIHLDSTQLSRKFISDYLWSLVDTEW
T2 sequence (Q9HBM1 whole entry, chain 4 of 4): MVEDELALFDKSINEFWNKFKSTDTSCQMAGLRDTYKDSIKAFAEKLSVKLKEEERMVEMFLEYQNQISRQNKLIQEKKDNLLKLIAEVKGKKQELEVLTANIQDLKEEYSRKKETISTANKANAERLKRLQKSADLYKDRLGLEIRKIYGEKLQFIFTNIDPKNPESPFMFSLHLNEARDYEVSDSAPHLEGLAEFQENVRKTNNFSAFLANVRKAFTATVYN

In the case of “HP1^110–191 (chromoshadow domain of HP1-α) (from UniProt P45973 110-191) (domain or fragment)”, the Kd [1] is reported as 400 to 500 nM.

B1: NSL1^227–281 (C-terminal tail of NSL1) (domain or fragment, human, UniProt Q96IY1 227-281, looked up)
chain: KPDAKPENFITQIETTPTETASRKTSDMVLKRKQTKDCPQRKWYPLRPKKINLDT
In the case of B1, the Kd [2] is reported as ~63 nM and ~130 nM and the “stoichiometry N” value [2] is reported as 1.

B2: MIS12C^NSL1-227 (MIS12 complex with a more extensive C-terminal deletion of NSL1) (complex, human)
chain 1: MSVDPMTYEAQFFGFTPQTCMLRIYIAFQDYLFEVMQAVEQVILKKLDGIPDCDISPVQIRKCTEKFLCFMKGHFDNLFSKMEQLFLQLILRIPSNILLPEDKCKETPYSEEDFQHLQKEIEQLQEKYKTELCTKQALLAELEEQKIVQAKLKQTLTFFDELHNVGRDHGTSDFRESLVSLVQNSRKLQNIRDNVEKESKRLKIS
chain 2: MAEASSANLGSGCEEKRHEGSSSESVPPGTTISRVKLLDTMVDTFLQKLVAAGSYQRFTDCYKCFYQLQPAMTQQIYDKFIAQLQTSIREEISDIKEEGNLEAVLNALDKIVEEGKVRKEPAWRPSGIPEKDLHSVMAPYFLQQRDTLRRHVQKQEAENQQLADAVLAGRRQVEELQLQVQAQQQAWQALHREQRELVAVLREPE
chain 3: MTSVTRSEIIDEKGPVMSKTHDHQLESSLSPVEVFAKTSASLEMNQGVSEERIHLGSSPKKGGNCDLSHQERLQSKSLHLSPQEQSASYQDRRQSWRRASMKETNRRKSLHPIHQGITELSRSISVDLAESKRLGCLLLSSFQFSIQKLEPFLRDTKGFSLESFRAKASSLSEELKHFADGLETDGTLQKCFEDSNGKASDFSLEASVAEMKEYITKFSLERQTWDQLLLHYQQEAKEILSRGSTEAKITEVKVEPMTYLGSSQNEVLNTKPDYQKILQNQSKVFDCMELVMDELQGSVKQLQAFMDESTQCFQKVSVQLGKRSMQQLDPSPARKLLKLQLQNPPAIHGSGSGSCQ
chain 4: MAGSPELVVLDPPWDKELAAGTESQALVSATPREDFRVRCTSKRAVTEMLQLCGRFVQKLGDALPEEIREPALRDAQWTFESAVQENISINGQAWQEASDNCFMDSDIKVLEDQFDEIIVDIATKRKQYPRKILECVIKTIKAKQEILKQYHPVVHPLDLKYDPDPAPHMENLKCRGETVAKEISEAMKSLPALIEQGEGFSQVLRMQPVIHLQRIHQEVFSSCHRK
B2: binds [3].

B3: MIS12C^NSL1-258 (MIS12 complex with NSL1 residues 1–258) (complex, human)
chain 1: B2 chain 1
chain 2: B2 chain 2
chain 3: B2 chain 3
chain 4: MAGSPELVVLDPPWDKELAAGTESQALVSATPREDFRVRCTSKRAVTEMLQLCGRFVQKLGDALPEEIREPALRDAQWTFESAVQENISINGQAWQEASDNCFMDSDIKVLEDQFDEIIVDIATKRKQYPRKILECVIKTIKAKQEILKQYHPVVHPLDLKYDPDPAPHMENLKCRGETVAKEISEAMKSLPALIEQGEGFSQVLRMQPVIHLQRIHQEVFSSCHRKPDAKPENFITQIETTPTETASRKTSDMVLKR
With B3 the Kd [4] was roughly 10 nM.

B4: MIS12C–KNL1^2106–2316 (five-subunit complex) (complex, human)
chain 1: B2 chain 1
chain 2: B2 chain 2
chain 3: B2 chain 3
chain 4: MAGSPELVVLDPPWDKELAAGTESQALVSATPREDFRVRCTSKRAVTEMLQLCGRFVQKLGDALPEEIREPALRDAQWTFESAVQENISINGQAWQEASDNCFMDSDIKVLEDQFDEIIVDIATKRKQYPRKILECVIKTIKAKQEILKQYHPVVHPLDLKYDPDPAPHMENLKCRGETVAKEISEAMKSLPALIEQGEGFSQVLRMQPVIHLQRIHQEVFSSCHRKPDAKPENFITQIETTPTETASRKTSDMVLKRKQTKDCPQRKWYPLRPKKINLDT
chain 5: T1 sequence (looked up)
B4 gave a Kd [4] of 4 nM.
